Results from the nanobody polyreactivity screen of Harvey et al. (2022).

Assay: yeast display, Sf9 membrane polyspecificity reagent, FACS + sequencing; frameworks hold sequencing errors
Outline: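 Nanobodies from a synthetic yeast display library (Saccharomyces cerevisiae BJ5465), induced 36–48 hours with galactose, were stained 1 hour at 4 °C with 10% biotinylated, detergent-solubilized Sf9 membrane reagent, enriched on streptavidin microbeads, then FACS-sorted. Anti-HA (expression) and streptavidin (reagent binding) fluorescence set low and high (top ~1%) gates. Polyreactivity labels come from the gate of origin. Genes were colony-PCR amplified, MiSeq 2 × 250 sequenced and filtered by CDR length.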

QVQLEESGGGLVQAGGSLRLSCAASGRTFSYYSMGCYRKAPGKERELVAAITSGGRTYYADSVKGRFTISRDNAKNTVYLQINSLKPEDTAVYYCAARWYARSLTRFNYWGQGTQVTVSS
polyreactivity (PSR sort gate): high polyreactivity

QVQLEESGGGLVQAGGSLRLSCAASGRTFYGKAMGWYRNAPGKEWEFVASISYSGTTTYYADSVKGRFTISRDNAKNTVYLKMNSLKPEDTAVYYCAVESYPTDYGPRFGSWGQGTQVTVSS
polyreactivity (PSR sort gate): low polyreactivity

QVQLEESGGGLVQAGGSLRLSCAASGRTFYSYAMGWYRQAPGKEREWVAAITSDGGTYYADSVKGRFTISRDNAKNTVYLQMNSLKPEDTAVYYCAAELYYWYYYWGQGTQVTVSS
polyreactivity (PSR sort gate): low polyreactivity

QVQLEESGGGLVQAGGSLRLSCAASGRTFYVNAMGWYRQATGKERELVAAISWSGGSTYYADSVKGRFTISRDNAKNTVYLQINSLKPEDTAVYYCAAEDIEDYEYWGQGTQVTVSS
polyreactivity (PSR sort gate): low polyreactivity

QVQLEESGGGLVQAGGSLRLSCAASGSIFALYAMGWYRQAPGKERELVAAISYRGGRTYYADSVKARFTISRDYAKNTVYLQMNILKPEDTAVYYCATDFPCKFDFWGQGTQVTVSS
polyreactivity (PSR sort gate): low polyreactivity

QVQLEESGGGLVQAGGSLRLSCAASGSIFDSYARGWNSQAPVQERELVAAISRSGGRTYYADSVKGRFTISRDNAKNTVYLQMNSLKPEDTAVYYCNVVLGWWAPYFYTSGDYWGQGTQVTVSS
polyreactivity (PSR sort gate): high polyreactivity

QVQLEESGGGLVQAGGSLRLSCAASGSIFGNAMGWYRQAPGKEREFVAAISSSGSSTYYADSVKGRFTISRDNAKNTVYLQMNSLKPEDTAVYYCAKRRRSADPKYDYWGQGTQVTVSS
polyreactivity (PSR sort gate): high polyreactivity

QVQLEESGGGLVQAGGSLRLSCAASGSIFQSYDMGWYRQAPGKERELVAAISWSGSTTYYADSVKGRFTISRDNAKNTVYLQMNSLKPEDTAVYYSAVDSNPPDWWAVIYGYWGQGTQVTVSS
polyreactivity (PSR sort gate): low polyreactivity

QVQLEESGGGLVQAGGSLRLSCAASGSIFRSNAMGWYRQAPGKERELVAAISSSGGSTYYADSVKGRFTISRDKAKNTVYLQMNSLKPEDTAVYYCAARPSGRGYYLLGYWGQGTQVTVSS
polyreactivity (PSR sort gate): low polyreactivity

QVQLEESGGGLVQAGGSLRLSCAASGSIFSQYAMGWYRQAPGKERELVASITWRGGRTYYADSVKGRFTISRDNAKNTVYLQMNSLKPEDTAVYYCNRVYGAHHYYYGIGTYDYWGQGTQVTVSS
polyreactivity (PSR sort gate): high polyreactivity

QVQLEESGGGLVQAGGSLRLSCAASGSIFSTYAMGWYRQAPGKERELVSAINSGDSTSYADSVKGRFTISRDNAKNTVYLQRNSLKPEDTAVYYCAAKTGGYWYLRRTGRYESWGQGTQVTVSS
polyreactivity (PSR sort gate): low polyreactivity

QVQLEESGGGLVQAGGSLRLSCAASGSIFTANAMGWYRQAHGKERELVAAINRSGGRTYADSVKGRFTISRDNAKNTVYLQMNSLKPEDTAVYYCAAVGHVYKGHDFGYWGQGTQVTVSS
polyreactivity (PSR sort gate): low polyreactivity

QVQLEESGGGLVQAGGSLRLSCAASGSIFTDYAMGSYGQAPGKERELVAAITSGGSTNYADSVKGRFTISRDNAKNTVYLQMNSLKPEDTAVYYCNADDYWLDSWSSDLWYDYWGQGTQVTVSS
polyreactivity (PSR sort gate): low polyreactivity

QVQLEESGGGLVQAGGSLRLSCAASGSIFVRNAMGWYRQAPGKERELVAAISRSGSSTYYADSVKGRFTISRDNAKNTVYLQMNSLKPEDTAVYYCAKRRPALRWIYYYWGQGTQVTVSS
polyreactivity (PSR sort gate): high polyreactivity

QVQLEESGGGLVQAGGSLRLSCAASGSIFVSVTMGWYRQAPGKERELVASIGRGSTTNHADSVKGRFTISRDNAKNIVYLLMNSLKPEDTAVYYCAALESYGKYHGYWGQGTQVTVSS
polyreactivity (PSR sort gate): low polyreactivity

QVQLEESGGGLVQAGGSLRLSCAASGSIFYPYAMGWYRQAPGKERELVAAISGRGGNTYYADSVKGRFTISRDIAKNTVYLQMNSLKPEDSAVYDCAADRYYWSLYGYDYWGQGTQVTVSA
polyreactivity (PSR sort gate): high polyreactivity

QVQLEESGGGLVQAGGSLRLSCAASGSIFYVNAMGWYRQAPGKERELVAAITSSGGSTYYADSVKGRFTISRDNAKNTVYLQMNSLIPEDTAVYYCAVDVYPGVFVEEGEYWGQGTQVTVSS
polyreactivity (PSR sort gate): low polyreactivity

QVQLEESGGGLVQAGGSLRLSCAASGSIFYYNAMGWYRQAPGTERELVAAIRRSGGRTYYADSVKGRFTISRDNAKNSVYLQMNSLKPEDTAVYYCAAVHYDRVTCQVDNDYWGQGTQVTVSS
polyreactivity (PSR sort gate): high polyreactivity

QVQLEESGGGLVQAGGSLRLSCAASGSIIYENTMGWYRQAPGKERELVAAISASGGSTEYADSVKGRFTISRDNEKNTVYLQMKSLKPEDTGVYYCAADACAFYFGGDYWGLGTQVTVSS
polyreactivity (PSR sort gate): low polyreactivity

QVQLEESGGGLVQAGGSLRLSCAASGSMFTRYAKGWYRQAPWKERELVAAISTSGGSTYYADSVKGRFTISRDNAKNTVYLQMTSLKPEDTAVYYCAADDQRRSGYYSWGQGTQVTVSS
polyreactivity (PSR sort gate): high polyreactivity

QVQLEESGGGLVQAGGSLRLSCAASGSNAMGWYRQAPGKERELVAVITSRGGSTYYADSVKGRFTISRDNAKNTVYLQMNSLKPEDTAVYYCAKAWYVRGTWSVHVRYGYWGQGTQVTVSS
polyreactivity (PSR sort gate): high polyreactivity

QVQLEESGGGLVQAGGSLRLSCAASGSTFESYAMGWYRQAPGKERELVATITRRSTRTYYADSVKGRFTISRDNAKNTVYLQMNSLKPEDTAVYYCAARVYTVRAIGMGYWGQGTQVTVSS
polyreactivity (PSR sort gate): high polyreactivity

QVQLEESGGGLVQAGGSLRLSCAASGSTFLLNAMGWYRQAPGKERELVAAITSSGGTNYADSVKGRFTISRDNAKNTVYLQMNSLKPEDTAVYNCYTRYSPGYQGTEVDYWGQGTQVTVSS
polyreactivity (PSR sort gate): low polyreactivity

QVQLEESGGGLVQAGGSLRLSCAASGSTFNYYAMGWYRTATGKERELVAAITGSGTSTYYADSVKGRFTISRDNAKNTVYLQMNSLKPEDTAVYYCNARYRPRQRPEGGYWGQGTQVTVSS
polyreactivity (PSR sort gate): high polyreactivity

QVQLEESGGGLVQAGGSLRLSCAASGSTFQRYAIGWYRQAPGKERELVAAISYRAGRRYYADSVKGRFTISRDNAKNTVYLQMNSLKPEDTAVYYCAAKNQGYQYDYWGQGTQVTVSS
polyreactivity (PSR sort gate): high polyreactivity

QVQLEESGGGLVQAGGSLRLSCAASGSTFSDNAMGWYRQAPGKERELVAAISTGTSTYADSVKGRFTISRDNAKNTVYLQMNSLKPEDTAVYYCAADVGIRPLNYHPYNYWGQGTQVTVSS
polyreactivity (PSR sort gate): low polyreactivity

QVQLEESGGGLVQAGGSLRLSCAASGSTFSGYAMGWYRQATGKDRELVAAITSSGGRTYYADSVKGRFTISRDKAKNTVYLQMNSLKPEDTAVYYCAALYYHEYDYWGQGTQVTVSS
polyreactivity (PSR sort gate): low polyreactivity

QVQLEESGGGLVQAGGSLRLSCAASGSTFTPYAMGWYRQAPGKERELVAAISWSGGSTYYADSVKGRFTISRDNAKNTVYLQMNSLKPEDTAVYYCAATYSYRTRAWGWGNYDYWGQGTQVTVSS
polyreactivity (PSR sort gate): high polyreactivity

QVQLEESGGGLVQAGGSLRLSCAASGSTLNYYAMGWYRQAPGKERELVAAITWSGGSTSYADSVKGRFTISRDKAKNTVYLQMNSLKQEDTAVYYCATDFPTVQLYDTDWLSSDMGYWGQGTQVTVSS
polyreactivity (PSR sort gate): low polyreactivity

QVQLEESGGGLVQAGGSLRLSCAASGSTSLKNAMGWYRQAPGKERELVAAISSGGSTYYADSVKGRFTISRDNAKNTVYLQINSLKPEDTAVYYCAAKYLRGLGYWGQGTQVTVSS
polyreactivity (PSR sort gate): high polyreactivity

QVQLEESGGGLVQAGGSLRLSCAASVSTFRLYVMGGYRQAPGKERQLVAAIDWSGGSTYYADSVKGRFTISRDNAKNTVYLQMNSLKPEDTAVYYCAADYSVASPDGPDVIYDYWGQGTQVTVSS
polyreactivity (PSR sort gate): low polyreactivity
